The text below walks through data of the Immune Epitope Database (IEDB).

Some targets named below: HLA-A*03:01; HLA-A*11:01; HLA-A*31:01; HLA-A*33:01; HLA-A*68:01.
Experiment in all cases: IEDB peptide-MHC binding, purified MHC/competitive/radioactivity; filed as Kd, often an IC50 or EC50 that approximates it; ≥ and ≤ were set here for values at or beyond the usual limits of such assays
[1] abbreviates: source organism: SARS coronavirus Tor2.
[2] abbreviates: source organism: Vaccinia virus WR.
Setting [3] is: source organism: Mammarenavirus juninense.
The mark [4] stands for this setting: source organism: Lassa virus Josiah.

What is called Kd is the concentration at which binding is half-saturated. Take YTNEIIGYK: the Kd with HLA-A*03:01 (setting [1]) came to 4.97 nM; in the experiment with HLA-A*11:01 (setting [1]), 2.56 nM; with HLA-A*31:01 (setting [1]), 937 nM; with HLA-A*33:01 (setting [1]), 0.414 µM; with HLA-A*68:01 (setting [1]) it was 2.24 nM.
Taken in the same sequence, the figures for MQGAVDINR were at least 23100 nM, 631 nM, 412 nM, at least 37.4 µM and 344 nM.
STIANSNIIK: the Kd stood at 251 nM with HLA-A*03:01 (setting [2]); 0.545 nM with HLA-A*11:01 (setting [2]); 1130 nM in the experiment with HLA-A*31:01 (setting [2]); 19.5 µM with HLA-A*33:01 (setting [2]); 16.1 nM with HLA-A*68:01 (setting [2]).
Take KSIIIPFIAY: the Kd with HLA-A*03:01 (setting [2]) was 968 nM; in the experiment with HLA-A*11:01 (setting [2]), 249 nM; with HLA-A*31:01 (setting [2]), 1370 nM; with HLA-A*33:01 (setting [2]) it was at least 31.7 µM; in the experiment with HLA-A*68:01 (setting [2]), 17600 nM.
As for KQIANQFNK, the Kd with HLA-A*03:01 (setting [1]) is 108 nM; with HLA-A*11:01 (setting [1]) it was 138 nM; in the experiment with HLA-A*31:01 (setting [1]), 24.2 nM; with HLA-A*33:01 (setting [1]), at least 77.7 µM; with HLA-A*68:01 (setting [1]) it was 9990 nM.
Turning to PVLKAMHDK, the Kd with HLA-A*03:01 (setting [2]) is 645 nM; with HLA-A*11:01 (setting [2]) it was 879 nM; with HLA-A*31:01 (setting [2]) it was at least 67400 nM; with HLA-A*33:01 (setting [2]), at least 77.7 µM; in the experiment with HLA-A*68:01 (setting [2]) it was 2520 nM.
As to DIDILQTNSR, the Kd with HLA-A*03:01 (setting [2]) is 63.8 nM; with HLA-A*11:01 (setting [2]), at least 27300 nM; in the experiment with HLA-A*31:01 (setting [2]), 711 nM; with HLA-A*33:01 (setting [2]), 0.314 µM; with HLA-A*68:01 (setting [2]) it was 839 nM.
Regarding MVGLLSNSPH, the equilibrium dissociation constant (Kd) is at least 30000 nM with HLA-A*03:01 (setting [3]); at least 41400 nM in the experiment with HLA-A*11:01 (setting [3]); 2890 nM with HLA-A*31:01 (setting [3]); 4.28 µM in the experiment with HLA-A*33:01 (setting [3]); 661 nM in the experiment with HLA-A*68:01 (setting [3]).
With QQWIQFMMSR, the Kd with HLA-A*03:01 (setting [1]) turned out to be 12500 nM; in the experiment with HLA-A*11:01 (setting [1]), 7800 nM; with HLA-A*31:01 (setting [1]) it was 127 nM; with HLA-A*33:01 (setting [1]) it was 1.45 µM; in the experiment with HLA-A*68:01 (setting [1]), 6640 nM.
Take VSLVKKNKKR: the Kd with HLA-A*03:01 (setting [2]) is at least 30500 nM; with HLA-A*11:01 (setting [2]), 6450 nM; in the experiment with HLA-A*31:01 (setting [2]), 324 nM; with HLA-A*33:01 (setting [2]) it was 6.89 µM; in the experiment with HLA-A*68:01 (setting [2]) it was at least 47800 nM.
Take YAKKFKTGMH: the Kd in the experiment with HLA-A*03:01 (setting [3]) was at least 70000 nM; with HLA-A*11:01 (setting [3]) it was at least 69700 nM; in the experiment with HLA-A*31:01 (setting [3]) it was at least 28200 nM; with HLA-A*33:01 (setting [3]) it was at least 29.2 µM; in the experiment with HLA-A*68:01 (setting [3]), at least 70100 nM.
Turning to FVNEKYCIIK, the Kd in the experiment with HLA-A*03:01 (setting [2]) is at least 48600 nM; with HLA-A*11:01 (setting [2]), 226 nM; in the experiment with HLA-A*31:01 (setting [2]), 6150 nM; in the experiment with HLA-A*33:01 (setting [2]) it was 3.92 µM; with HLA-A*68:01 (setting [2]), 275 nM.
For PMVIENGILK, the Kd is 10200 nM with HLA-A*03:01 (setting [2]); 216 nM in the experiment with HLA-A*11:01 (setting [2]); at least 24100 nM with HLA-A*31:01 (setting [2]); at least 70 µM with HLA-A*33:01 (setting [2]); 292 nM with HLA-A*68:01 (setting [2]).
As to ESKAKQLCY, the Kd with HLA-A*03:01 (setting [2]) is at least 78000 nM; with HLA-A*11:01 (setting [2]) it was at least 77900 nM; in the experiment with HLA-A*31:01 (setting [2]), at least 77900 nM; in the experiment with HLA-A*33:01 (setting [2]) it was at least 77.7 µM; in the experiment with HLA-A*68:01 (setting [2]) it was 15900 nM.
On to ATSTRHPSK, for which the Kd in the experiment with HLA-A*03:01 (setting [1]) was 0.599 nM; in the experiment with HLA-A*11:01 (setting [1]), 9.8 nM; with HLA-A*31:01 (setting [1]), 623 nM; with HLA-A*33:01 (setting [1]), at least 77.7 µM; in the experiment with HLA-A*68:01 (setting [1]), 275 nM.
For ILQLIRHGR, the Kd in the experiment with HLA-A*03:01 (setting [2]) worked out at 1430 nM; with HLA-A*11:01 (setting [2]) it was 725 nM; with HLA-A*31:01 (setting [2]), 0.975 nM; with HLA-A*33:01 (setting [2]), 0.00262 µM; with HLA-A*68:01 (setting [2]), 75.2 nM.
For YLLVKWIRK, the Kd in the experiment with HLA-A*03:01 (setting [2]) is 7.5 nM; with HLA-A*11:01 (setting [2]), 84 nM; with HLA-A*31:01 (setting [2]), 285 nM; with HLA-A*33:01 (setting [2]) it was 5.2 µM; with HLA-A*68:01 (setting [2]), at least 35200 nM.
Turning to KLDDVEKEK, the Kd is 404 nM with HLA-A*03:01 (setting [2]); 292 nM in the experiment with HLA-A*11:01 (setting [2]); 4770 nM in the experiment with HLA-A*31:01 (setting [2]); at least 77.7 µM with HLA-A*33:01 (setting [2]); at least 59900 nM with HLA-A*68:01 (setting [2]).
For KLVKSLVDK, the dissociation constant (Kd) with HLA-A*03:01 (setting [2]) is 34.5 nM; with HLA-A*11:01 (setting [2]), 73.4 nM; with HLA-A*31:01 (setting [2]), at least 41300 nM; with HLA-A*33:01 (setting [2]), at least 77.7 µM; with HLA-A*68:01 (setting [2]), at least 77700 nM.
For the sequence LFHGGEPIK, the Kd with HLA-A*03:01 (setting [2]) is 719 nM; with HLA-A*11:01 (setting [2]), 766 nM; in the experiment with HLA-A*31:01 (setting [2]) it was at least 77900 nM; with HLA-A*33:01 (setting [2]), at least 77.7 µM; with HLA-A*68:01 (setting [2]), 5110 nM.
Turning to RASTTENAAY, the Kd with HLA-A*03:01 (setting [2]) was 13400 nM; with HLA-A*11:01 (setting [2]), 564 nM; with HLA-A*31:01 (setting [2]), 2090 nM; in the experiment with HLA-A*33:01 (setting [2]), at least 70 µM; with HLA-A*68:01 (setting [2]), 4630 nM.
In the case of DQYKDLCHMH, the dissociation constant Kd was at least 70000 nM with HLA-A*03:01 (setting [4]); at least 69700 nM with HLA-A*11:01 (setting [4]); at least 70000 nM with HLA-A*31:01 (setting [4]); at least 70 µM in the experiment with HLA-A*33:01 (setting [4]); at least 70100 nM with HLA-A*68:01 (setting [4]).
Take GLLDSIKMIY: the Kd with HLA-A*03:01 (setting [2]) came to 45.9 nM; with HLA-A*11:01 (setting [2]) it was 3410 nM; with HLA-A*31:01 (setting [2]), 1540 nM; with HLA-A*33:01 (setting [2]), 2.91 µM; with HLA-A*68:01 (setting [2]), 818 nM.
FLAVFQSATK: the Kd with HLA-A*03:01 (setting [1]) was 34.3 nM; with HLA-A*11:01 (setting [1]) it was 1610 nM; with HLA-A*31:01 (setting [1]), 10800 nM; in the experiment with HLA-A*33:01 (setting [1]), at least 22.4 µM; in the experiment with HLA-A*68:01 (setting [1]) it was 8.81 nM.
